Test results taken from article doi:10.1101/2025.05.08.652968, “Molecular mechanism of exchange coupling in CLC chloride/proton antiporters” (bioRxiv, 2025).

Biological target: the molecule itself
Test: cryo-EM structure; CLC-ec1 in Salipro (Saposin-A, POPE/POPG) nanoparticles, 10 mM Hepes, 150 mM NaCl, pH 7.5; C2 symmetry imposed

B1: CLC-ec1 (wild type) (natural protein, E. coli)
chain: MKTDTPSLETPQAARLRRRQLIRQLLERDKTPLAILFMAAVVGTLVGLAAVAFDKGVAWLQNQRMGALVHTADNYPLLLTVAFLCSAVLAMFGYFLVRKYAPEAGGSGIPEIEGALEDQRPVRWWRVLPVKFFGGLGTLGGGMVLGREGPTVQIGGNIGRMVLDIFRLKGDEARHTLLATGAAAGLAAAFNAPLAGILFIIEEMRPQFRYTLISIKAVFIGVIMSTIMYRIFNHEVALIDVGKLSDAPLNTLWLYLILGIIFGIFGPIFNKWVLGMQDLLHRVHGGNITKWVLMGGAIGGLCGLLGFVAPATSGGGFNLIPIATAGNFSMGMLVFIFVARVITTLLCFSSGAPGGIFAPMLALGTVLGTAFGMVAVELFPQYHLEAGTFAIAGMGALLAASIRAPLTGIILVLEMTDNYQLILPMIITGLGATLLAQFTGGKPLYSAILARTLAKQEAEQLARSK
notes: CLC-ec1, the E. coli CLC Cl-/H+ exchange transporter homolog; The eluate of the cobalt column was incubated with Endoproteinase Lys-C; Homodimer in the cryo-EM maps (C2 symmetry imposed); also called WT CLC-ec1; WT
Does B1 bind?
Result: binds
